The text below walks through data of a protein production outcome set (Wang et al. 2014).

This data set can be described thus: label from the status in PepcDB records.
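Also: failed if final PepcDB status was selected cloned or expressed and not failed if soluble or beyond.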

Consider “MGKVYRTSQMAASILVNAIYAMKNFPITLVNTLLSPLSFLLVITLASHGRLLSVSVGGALIMSMISSGIGLQGDLSHLKNDFKLQDMVVSSPTTASVYLIGMAISEIVYSIPALAVLGVHASIYIHTTVVGVFQIVAVMVLMFSFSILLGFTLATITYDIIQSWAFSGIISTLISTIPPVYYPITYIPMPFRYAAYASPTTYGAELVQSAIGFVHLSGASFIVDWVILIMINVVFFIIALKKARWREI”, for which the protein production result is on record as “failed”. Next, “MGLDDLVGQWLLPGMALAAVGVFFCIKGYLLRRQMARDALTDALTVGELRRRVHALVLGKRQRVYSGAMFLVEVVHHPELSAMLGLEDNKLLLAMIAQRLQMQSDYFQVARHSSDSFMVWAPDLDPRSARDVAPEVLDALSQPYELRGQPLIVGFRLSGALYAQHGACFDELERSLHIAMLHLDESAGAAWNMFEPSMLEHQRHYQGLEHDLRVALVSSSMDQFEVCYQPVCDSVTGTIYGCEALLRWHHPVHGDVSPALVIELAERTGLIVPLGAWVLETACSRAITWPAAWRLHVNVSVRQMYADELPAQVALALAASRLSAQRLVLEITESLFIQQYERHVATLNGMRAKGVRVALDDFGAGYSSLTHLRRLPIDWVKLDRGFVAEIEFDAVSREVVSALMGMCRALGLAVVAEGVETPAQREILKALGCREMQGFLLGRPVSAERIRELGAAVS”: “failed”; “MGLFELNLAIILFIIGNFIGLEYSYRKYSSPYVEKGIDKFALAISVFGGILINSPLYMLGCLLIGFPLGMRPGYGRVEFVVGLAVALFLYFLRW”: “failed”. Next, “MGLKNIVVFVEPSNAGATRARYAVELARRHGAHLIGIFVASSDGPIPANAYVRGRDAMRRLIELHDANAIETTSVASRNFNTATNSADITYEFRIIREIESDDTKLHCLHADLVIVGHPRPGGLPLYSSAEGLLLATGIPFLIVPDGWPSGAVAQRVLLAWNASREARRAITDSLPLLSAAQSVSIVVIDSAKNRLHGENPGADVAVYLSRHGAHVTTEQIDSNGSPIADVILQHAVHGGFDLIVLGAYSHARVREAVFGGVTRSLLKLATIPMLIAH”: “failed”. Next, “MGLNIKPLVVSVLGSVLLAGCATAPPKQQDNLCEIFREKSGWYDDAKYMEKEWGTPIHVAMAIIKQESSFRHDAKPPKDYVLGFIPWGRVSSAYGYAQAQDPAWDDFQDSTGQGGSRSNFDDSIMFVGWYTHETRRQLGISLWDPYNQYLAYHEGRGGYKRGTYKRKPSLMKVARRVEQTAKTYGWQLKQCRQELEDNSSWFF”: “failed”; “MGLSHKFQVKQFVEISPYSQSRLRHEQPQTPIHSDITTYHCHRGQFDIVAGGLPCQGTSNAGNRQGLDDPRSALWAEQFRIIESDRPAIALIENPTGLLYRGLEQIICDLDSIGYMGEWNCISAQQVGLPHQRKRIFIIAYSNGLFNQVVPAPWSNQIGNHITQVRLSLETRSYQPGISKVASRIPIGVAKNIPGNYDARRAYGLSCSPRQAAVAWKRIDYLCSLLEHHHHHH”: “failed”; “MGLVTDEVRARAEKYTGDEICREKTKEFLKEVSMPNGLLPLKDIEEVGYDRETGIVWLKQKKSITHKFEAIGKLVSYATEVIAQVEVGKIKKLTGVKAKELLIWVTLNELVLEQPTSSGKINFRTPTGLSRTFPVSAFVVPEVEKPATEKNNGTTEVKEAVAVTDA”: “failed”. For the sequence “MGLVVSARSVSPLKKWPSRVRSFSINMGQPKSGQGWKLGACCPANRHNRERTRSCAPAGLTCLRPAPAPWACLGLDLCPSLGLDLGPSLGLALRSGPAEETMDPAGRARGQGATAGGLLLRAAAAAKGLREDLWGAAALPWRSLSRIPKREGLGEEDTAVAGHELRESRDEVSENQAAGRAGSKGLEKVPRAAPPDAAGGKLARRLSPGTPSPSLHRCTPLLPNERSFQNAAKSNNLDLMEKLFEKKVNINVVNNMNRTALHFAVGRNHLSAVDFLLKHKARVDVADKHGLTVIHLAAWSGSLEVMLMLVKAGADQRAKNQDGMSALHFATQSNHVRIVEYLIQDLHLKDLNQPDEKGRKPFLLAAERGHVEMIEKLTFLNLHTSEKDKIQWSTLWTAALTKMKTSRNSIAALTIEGACSPGTGVSTSSVSLLQGGNTALHLAAKHGHSPAVQVLLAQWQDINEMNELNISSLQIATRNGHASLVNFLLSENVDLHQKVEPKESPLHLVVINNHITVVNSLLSAQHDIDILNQKQQTPLHVAADRGNVELVETLLKAGCDLKAVDKQGKTALAVASRSNHSLVVGMLIKAERYYAWREEHHESIRDPSTGFTLTFKQDHSLETRHIRTLLWDLAYHQLKANEWQRLARSWNFTDDQIRAIEEQWSDENLGNIESLLGINQLISFENNEANMFLGKVFYSEHCPLMDILRREGVLAQGSICIRDCWELGMAEAQSMSTHYLYHIQEAVYRNIILTSYSPSVVLAVAHTEYGTMEGACKLSAASPLGNDPVNTGYSLAWQFCVIPLLSI”, the protein production result is reported as “failed”. Next, “MGMDLRVVPAEEWLNRGIDSSHDGEHDLGLMVTDFLETGGGSGGAGSWCSSDSDSGFPDPSYLSDKIQYLKYSMAQHETEVLSVVRTLMLTIKEKDLHSVKSGTCNASCIRFYLAKLLRLSGYDAAVCSARWQGGGKVPGGDNEYIDIILSDTEVGQDDRLIVDIDFRSHFEIARAVDSYQRIMESLPVVYVGTVARLNQFLQVMVDAAKFSLKQNSMPLPPWRSLNYLRSKWHSPHKRHLGPIDQQGPGMFSPGLHGQCAENLKRLQFALQVEQEAERFMKKKSGFSRRN”: “failed”; “MGMFERDTEIYLDRDALREDYQPENLVGRDTELNRYRAALQPVINGEQPNNIFLYGKTGVGKTAGTRYLIDHLEEDAAKYEDIDLTVKMLNCDGLSSSYQIATRLVNEFRDETSQISTTGYPRATVYDMLWTELDSCGGTIYIVLDEVDHIEDDSILYQLPRARANDNLSSAKIGIIGISNDFSFRDDLSPKVKSSLCEEEIQFPAYDAKELIQILQQRADVAFHDGVLEDGVIELCAAYGAKDAGDARQSLDLLMKTGDLARDKDTDTISEDLVREARDVLERGRIQEGISGLTQHGHLVVYAMVTLDQEGKTPARTRDIRPRYTNFAEKAGIDPLVPRRMRDHLGELSMLGIISAIERNEGRRGGTYREYSLEMDPEMILAALEKTVDDVGIHKSVTNLVDAEATLSDFQST”: “failed”; “MGMKYWSSKRRLYLTPVSFGFACSALLMLGTLSSYPDWLTCNPAPVVNQNDAVIYYFFRNIMMAVLFMSSIILYYFRQRIMHSWKAHVLTFTACILFTLTIIVLSWLYSSHSPWLSVNFIDDLSHTFTPLWQSIIGWLLMAVWFITLILLISLSKLRNIFWFSGAFFCSAYLFTLFQLLSTAGELDQTWYQARFFETLCTLFLILVLLVDVFILYRESNHKYVHSYQNSIRDPLTRLYNRSFFYDTLNQQLAKVNAQHPLSVLISDLDHFKRINDSYGHVAGDKVIQFAASVLESHSRVDDAAARIGGEEFALLLVNTGEKEAQAIAERIRLAVSAGESHLPERMTISMGVYTTYDNSVTAEACVQRADEAMYEAKNNGRNQVIVWHQQGG”: “failed”.

Take “MGMLGLDLLKEVPGLLEEIKALPLRLDEERFRFWLQQDYPFVEALYRYQVGLLLEAPQAHRAPLVQALMATVEELDWLLLQGASPSAPVHPVRAGYIALLEEMGRLPYAYRVVFFYFLNGLFLEAWAHHVPEEGPWAELSQHWFAPEFQAVLYDLEVLARGLWEDLDPEVVRTYLRRILEAEKATWSLLL”: the protein production entry is “not failed”. With “MGNFHATTIFAVHHNGECAMAGDGQVTMGNAVVMKHTARKVRKLFQGKVLAGFAGSVADAFTLFEMFEGKLEEYNGNLQRAAVEMAKQWRGDKMLRQLEAMLIVMDKTTMLLVSGTGEVIEPDDGILAIGSGGNYALSAGRALKQYASEHLTAKQIAKASLEIAGDICVYTNHNIIVEEL”, the protein production entry is listed as “not failed”. Next, “MGNFSLFSSFNPEGQHDDVANRWRSPTPMRYIIPNIITILAICAGMSSIRLAFEHRYEAAILMVLLAAILDGADGRIARLMDGSSSFGAQMDSLADVINFGVAPSLIVYSFVLNQAHQVGWIAGLVYCVACCLRLARFNVMLDNTDIPKWQGNYFVGVPAPAGALLLLLPMYLGALGLVPSWSWALFFSLYTVIIAFLLVSRLPVWNGKTINQNLRRDIVVPCMLGIVIYVGFLATYTWHTLLITAVSYMIFLPCSFVAYNKRAALEEKKANIKTLSSS”: “failed”; “MGNFTFEEMNLMCIYNTGSRTGLIDSLREMRGELAPEETELRELTDSALGNLQAMSDAEFAELELYPDFDQ”: “failed”. Consider “MGNNKNLHGHLFALTANVMWGLMSPIGKSALQEFSAISVTTFRMVGAAAAFWILSIFCKQEHVDHRDMLKIFFASLFALVFNQGIFIFGLSMTSPIDASIVTTTLPIVTMIVAAIYLKEPITNKKVLGIFVGAMGALILIMSSQAASSGNGSLIGDLLCLVAQISFSIYLTVFKGLSQRYSAVTINKWMFIYASMCYIPFSYQDISVIQWTSIPMVAILQVLYVVLGGSFLAYLCIMTAQKLLRPTVVSMYNYMQPIVATIAAILMGIGSFGWEKGIAITLVFLGVYIVTQSKSKADFEKAGKEL”, for which the protein production result is reported as “failed”. In the case of “MGPINLLWLQAAGCGGCTMAILEQGRAGWFAELASFDINLLWHPSVSEATADDVIDLLAAVSAARTPLSVLVVEGAVLRGPNGSGRFNMLGGTGRSMASWISELAPRADYVVAVGSCSAYGGVPAAGHNPTDASGLQFLGTEPGGVLGAAFRSKAGLPVINIAGCAPHPGWIAETLAALALGEFSAAALDSFARPKFFAEHLAHHGCARNEFYEFKASAEAMSQRGCLMEHLGCKATQAVGDCNQRSWNGGGSCTQAGYPCIACTSPGFEAAHNYMTTAKVAGIPVGLPLDMPKAWFVALAALSKSATPKRVRANATADHVVVPPTPSGHRRK” it was “failed”; in that of “MGPPERPSLGWTPKEADMQSGPQPDEWSSGWKPGDGGAAPLPLSPALSFLLLFPLASALQPTPLPFPELRLVGGPSRCRGRLEVMHSGSWGSVCDDDWDVVDANVVCRQLGCGLALPVPRPLTFGQGRGPIFLDNVECRGQEASLSECGSRGWGVHNCFHYEDVAVLCDEFLHTQPPARKVLTSIAPPTALQNGRGEGSVRLAGGASPCQGRVEILHGGLWGTVCDDDWGLPDAAVVCRQLGCGAALAATTNAFFGYGTGHILLDNVHCEGGEPRLAACQSLGWGVHNCGHHEDAGVLCAATGVGALPSRDTIRFTTAAWASGKKSGRLRLVGGPSPCRGRVEVLYAGGWGTVCDDDWDFADARVACREAGCGPALGATGLGHFGYGRGPVLLDNVGCTGTEARLSDCFHLGWGQHNCGHHEDAGALCAGEAVESDKEAAQAEQAGLRAHKRGSVHARTNNMGPEELGLQVQQDGSETTRMPSPRPRDGHLRLASGTHRCEGRVELFLGQQWGTVCDDAWDLRAAIVLCRQLGCGQALAALGEAHFGPGRGPILLDNVKCRGDESTLLLCSHIRWDVHNCDHSEDASVLCQPL”, “failed”.
